The values below come from patent US10618965 (dated 2020).

Common to all, as to assay: SPR, pH 7.0
(In general: In SPR one partner is held on a chip, and binding of the other changes the refractive index at the surface.)

For test [1], the target named is human FcRn (with beta2-microglobulin) (human).
For test [2] the target is unchanged. The source holds these as a separate data set.
The next test has as its target T1, mouse FcRn (mouse, UniProt Q61559).
T1 chain 1: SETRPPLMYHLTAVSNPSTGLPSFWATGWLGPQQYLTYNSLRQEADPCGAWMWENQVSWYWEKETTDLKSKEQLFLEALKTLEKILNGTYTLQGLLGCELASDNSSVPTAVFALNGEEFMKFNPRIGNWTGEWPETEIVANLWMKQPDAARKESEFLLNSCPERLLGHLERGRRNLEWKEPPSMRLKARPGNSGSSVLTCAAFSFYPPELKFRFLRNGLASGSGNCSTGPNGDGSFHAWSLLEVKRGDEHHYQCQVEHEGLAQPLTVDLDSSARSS
T1 chain 2: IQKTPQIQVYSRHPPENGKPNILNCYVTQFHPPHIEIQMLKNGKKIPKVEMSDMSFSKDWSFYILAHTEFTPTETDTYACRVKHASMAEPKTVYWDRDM

As a reminder, the Kd is the concentration at which binding is half-saturated. Read a high Kd as lower affinity.

human FcRn (with beta2-microglobulin) (human), sequence (chain, as listed by the source, chain 1 of 2): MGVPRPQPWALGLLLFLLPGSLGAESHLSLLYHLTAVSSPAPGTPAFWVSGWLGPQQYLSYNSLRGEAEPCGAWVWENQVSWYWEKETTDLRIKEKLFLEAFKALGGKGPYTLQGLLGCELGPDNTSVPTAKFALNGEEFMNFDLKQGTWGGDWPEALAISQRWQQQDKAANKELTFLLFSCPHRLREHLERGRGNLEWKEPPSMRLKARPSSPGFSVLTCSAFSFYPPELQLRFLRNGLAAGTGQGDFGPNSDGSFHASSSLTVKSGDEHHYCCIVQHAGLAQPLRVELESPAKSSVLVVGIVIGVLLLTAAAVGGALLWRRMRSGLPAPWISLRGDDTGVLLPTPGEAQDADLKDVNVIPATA
human FcRn (with beta2-microglobulin) (human), sequence (chain, as listed by the source, chain 2 of 2): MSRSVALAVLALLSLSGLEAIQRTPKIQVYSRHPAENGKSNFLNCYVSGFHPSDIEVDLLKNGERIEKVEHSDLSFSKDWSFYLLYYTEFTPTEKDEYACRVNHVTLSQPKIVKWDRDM

B1: IgG2 (antibody)
chain 1: QVQLQESGPGLVKPSETLSLTCAVSGHSISHDHAWSWVRQPPGEGLEWIGFISYSGITNYNPSLQGRVTISRDNSKNTLYLQMNSLRAEDTAVYYCARSLARTTAMDYWGEGTLVTVSSASTKGPSVFPLAPCSRSTSESTAALGCLVKDYFPEPVTVSWNSGALTSGVHTFPAVLQSSGLYSLSSVVTVPSSNFGTQTYTCNVDHKPSNTKVDKTVERKCCVECPPCPAPPVAGPSVFLFPPKPKDTLMISRTPEVTCVVVDVSHEDPEVQFNWYVDGVEVHNAKTKPREEQFNSTFRVVSVLTVVHQDWLNGKEYKCKVSNKGLPAPIEKTISKTKGQPREPQVYTLPPSREEMTKNQVSLTCLVKGFYPSDIAVEWESNGQPENNYKTTPPMLDSDGSFFLYSKLTVDKSRWQQGNVFSCSVMHEALHNHYTQKSLSLSP
chain 2: not shown
With B1, the binding result in test [1] is listed as “no binding”.

B2: IgG2-F939 (antibody)
chain 1: QVQLQESGPGLVKPSETLSLTCAVSGHSISHDHAWSWVRQPPGEGLEWIGFISYSGITNYNPSLQGRVTISRDNSKNTLYLQMNSLRAEDTAVYYCARSLARTTAMDYWGEGTLVTVSSASTKGPSVFPLAPCSRSTSESTAALGCLVKDYFPEPVTVSWNSGALTSGVHTFPAVLQSSGLYSLSSVVTVPSSNFGTQTYTCNVDHKPSNTKVDKTVERKCCVECPPCPAPPVRGPKVFLFPPKPKDTLYISRTPEVTCVVVDVSHEDPEVQFNWYVDGVEVHNAKTKPREEQFNSTFRVVSVLTVVHQDWLNGKEYKCKVSNKGLPAPIEKTISKTKGQPREPQVYTLPPSREEMTKNQVSLTCLVKGFYPSDIAVEWESNGQPENNYKTTPPMLDSDGSFFLYSKLTVDKSRWQQGNVFSCSVMHEALHYHVTQKSLSLSP
chain 2: not shown
Regarding B2, in test [2], the dissociation constant Kd was found to be 140 nM.

B3: mIgG1 (antibody)
chain 1: DVQLQESGPVLVKPSQSLSLTCTVTGYSITSDHAWSWIRQFPGNKLEWMGYISYSGITTYNPSLKSRISITRDTSKNQFFLQLNSVTTGDTSTYYCARSLARTTAMDYWGQGTSVTVSSAKTTPPSVYPLAPGSAAQTNSMVTLGCLVKGYFPEPVTVTWNSGSLSSGVHTFPAVLQSDLYTLSSSVTVPSSTWPSETVTCNVAHPASSTKVDKKIVPRDCGCKPCICTVPEVSSVFIFPPKPKDVLTITLTPKVTCVVVDISKDDPEVQFSWFVDDVEVHTAQTQPREEQFNSTFRSVSELPIMHQDWLNGKEFKCRVNSAAFPAPIEKTISKTKGRPKAPQVYTIPPPKEQMAKDKVSLTCMITDFFPEDITVEWQWNGQPAENYKNTQPIMDTDGSYFVYSKLNVQKSNWEAGNTFTCSVLHEGLHNHHTEKSLSHSPGK
chain 2: not shown
Turning to B3, the binding result in the test with mouse FcRn is listed as “no binding”.
